Like-named read-outs stand apart in the source and are kept apart here.
Columns and labels:
[1] = target: T1, GST-MLK4β (Mixed Lineage Kinase 4β) (human, UniProt Q5TCX8-1 1-1036); assay: pull-down
[2] = target: T1, GST-MLK4β (Mixed Lineage Kinase 4β); assay: pull-down; remark: listed apart in the source

T1 sequence (Q5TCX8 whole entry): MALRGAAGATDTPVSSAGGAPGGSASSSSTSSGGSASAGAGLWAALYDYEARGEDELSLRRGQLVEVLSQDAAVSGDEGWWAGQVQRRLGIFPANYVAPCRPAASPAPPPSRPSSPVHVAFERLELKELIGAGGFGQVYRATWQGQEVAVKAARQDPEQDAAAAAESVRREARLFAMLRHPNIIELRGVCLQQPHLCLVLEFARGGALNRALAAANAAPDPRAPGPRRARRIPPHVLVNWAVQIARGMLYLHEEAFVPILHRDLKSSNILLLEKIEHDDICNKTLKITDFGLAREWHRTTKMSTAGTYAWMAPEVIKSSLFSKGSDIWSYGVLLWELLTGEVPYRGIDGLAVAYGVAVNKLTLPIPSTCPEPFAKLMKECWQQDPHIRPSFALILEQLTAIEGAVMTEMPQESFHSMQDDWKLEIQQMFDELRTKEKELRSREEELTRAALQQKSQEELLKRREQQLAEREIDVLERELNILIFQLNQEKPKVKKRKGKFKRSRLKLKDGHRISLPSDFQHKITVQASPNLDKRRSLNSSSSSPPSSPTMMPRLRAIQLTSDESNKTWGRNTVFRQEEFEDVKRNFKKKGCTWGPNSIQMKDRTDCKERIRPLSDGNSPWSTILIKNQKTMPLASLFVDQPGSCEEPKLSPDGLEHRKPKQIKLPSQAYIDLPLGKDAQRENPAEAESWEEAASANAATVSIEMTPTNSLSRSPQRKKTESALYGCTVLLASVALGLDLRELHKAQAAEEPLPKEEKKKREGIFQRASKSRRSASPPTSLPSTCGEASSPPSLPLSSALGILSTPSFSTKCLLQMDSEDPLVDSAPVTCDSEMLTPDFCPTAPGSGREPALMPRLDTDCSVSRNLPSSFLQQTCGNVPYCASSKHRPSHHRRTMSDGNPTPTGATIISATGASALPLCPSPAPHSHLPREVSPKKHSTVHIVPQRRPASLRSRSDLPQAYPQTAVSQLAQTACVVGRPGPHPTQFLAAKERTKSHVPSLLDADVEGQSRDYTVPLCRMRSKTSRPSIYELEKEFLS

binding result [1]	binding result [2]	Binder
binds		FLAG-CHIP (carboxy-terminus of Hsc70-interacting protein) (enzyme, human, UniProt Q9UNE7 1-303, looked up) MKGKEEKEGGARLGAGGGSPEKSPSAQELKEQGNRLFVGRKYPEAAACYGRAITRNPLVAVYYTNRALCYLKMQQHEQALADCRRALELDGQSVKAHFFLGQCQLEMESYDEAIANLQRAYSLAKEQRLNFGDDIPSALRIAKKKRWNSIEERRIHQESELHSYLSRLIAAERERELEECQRNHEGDEDDSHVRAQQACIEAKHDKYMADMDELFSQVDEKRKKRDIPDYLCGKISFELMREPCITPSGITYDRKDIEEHLQRVGHFDPVTRSPLTQEQLIPNLAMKEVIDAFISENGWVEDY
	binds	His-MLK3 (Mixed Lineage Kinase 3) (enzyme, human, UniProt Q16584 1-847, looked up) MEPLKSLFLKSPLGSWNGSGSGGGGGGGGGRPEGSPKAAGYANPVWTALFDYEPSGQDELALRKGDRVEVLSRDAAISGDEGWWAGQVGGQVGIFPSNYVSRGGGPPPCEVASFQELRLEEVIGIGGFGKVYRGSWRGELVAVKAARQDPDEDISVTAESVRQEARLFAMLAHPNIIALKAVCLEEPNLCLVMEYAAGGPLSRALAGRRVPPHVLVNWAVQIARGMHYLHCEALVPVIHRDLKSNNILLLQPIESDDMEHKTLKITDFGLAREWHKTTQMSAAGTYAWMAPEVIKASTFSKGSDVWSFGVLLWELLTGEVPYRGIDCLAVAYGVAVNKLTLPIPSTCPEPFAQLMADCWAQDPHRRPDFASILQQLEALEAQVLREMPRDSFHSMQEGWKREIQGLFDELRAKEKELLSREEELTRAAREQRSQAEQLRRREHLLAQWELEVFERELTLLLQQVDRERPHVRRRRGTFKRSKLRARDGGERISMPLDFKHRITVQASPGLDRRRNVFEVGPGDSPTFPRFRAIQLEPAEPGQAWGRQSPRRLEDSSNGERRACWAWGPSSPKPGEAQNGRRRSRMDEATWYLDSDDSSPLGSPSTPPALNGNPPRPSLEPEEPKRPVPAERGSSSGTPKLIQRALLRGTALLASLGLGRDLQPPGGPGRERGESPTTPPTPTPAPCPTEPPPSPLICFSLKTPDSPPTPAPLLLDLGIPVGQRSAKSPRREEEPRGGTVSPPPGTSRSAPGTPGTPRSPPLGLISRPRPSPLRSRIDPWSFVSAGPRPSPLPSPQPAPRRAPWTLFPDSDPFWDSPPANPFQGGPQDCRAQTKDMGAQAPWVPEAGP

Reference: PMC5592140 (Cellular signalling, 2017)
